Results reported in patent US20190112365A1 (EISAI R AND D MANAGEMENT, published 2019).
Changes are numbered by the printed parent chain. Where “and” joins values, the source holds several entries; their conditions need not be identical. Equal entries are not always repeated.

B1: 7G6-HCzu17-LCzu12 (antibody, human IgG1, kappa, V domains shown)
VH: EVQLLESGGGLVQPGGSLRLSCAASGYTFTTYWITWVRQAPGKGLEWVSDIYPGSSICNYNEKFKSRFTISVDNSKNTLYLQMNSLRAEDTAVYYCAREDGYDAWFAYWGQGTLVTVSS
VL: DVQMTQSPSSLSASVGDRVTITCRSSQSILHSNGNTYLEWYQQKPGKAPKLLICKVSNRFSGVPSRFSGSGSGTDFTLTISSLQPEDFATYYCFQGSHVPFTFGQGTKLEIKR
notes: humanized, human IgG1 kappa
B2: 7G6-HCzu15-LCzu12 (antibody, human IgG1, kappa, V domains shown)
VH: B1 VH with S49G, L79A
VL: B1 VL
notes: humanized, human IgG1 kappa
B3: 7G6-HCzu20-LCzu12 (antibody, human IgG1, kappa, V domains shown)
VH: B1 VH with N61A, E62D, S66G, V72R, R98K
VL: B1 VL
notes: humanized, human IgG1 kappa
B4: 7G6-HCzu12-LCzu16 (antibody, human IgG1, kappa, V domains shown)
VH: B1 VH with S49G, N77S, L79A
VL: B1 VL with L30V, C54S
notes: humanized, human IgG1 kappa
B5: 7G6-HCzu12-LCzu13 (antibody, human IgG1, kappa)
heavy: not shown
light: DVQMTQSPSSLSASVGDRVTITCRSSQSILHSNGNTYLEWYQQKPGKAPKLLIYKVSNRFSGVPSRFSGSGSGTDFTLTISSLQPEDFATYYCFQGSHVPFTFGQGTKLEIKRTVAAPSVFIFPPSDEQLKSGTASVVCLLNNFYPREAKVQWKVDNALQSGNSQESVTEQDSKDSTYSLSSTLTLSKADYEKHKVYACEVTHQGLSSPVTKSFNRGEC
notes: humanized, human IgG1 kappa
B6: 7G6-HCzu13-LCzu12 (antibody, human IgG1, kappa, V domains shown)
VH: B1 VH with S49G, N61A, E62D, K63S, F64V, S66G, N77S, L79A
VL: B1 VL
notes: humanized, human IgG1 kappa
B7: 7G6-HCzu12-LCzu15 (antibody, human IgG1, kappa, V domains shown)
VH: B1 VH with S49G, N77S, L79A
VL: B1 VL with C54S
notes: humanized, human IgG1 kappa
B8: 7G6-HCzu12-LCzu12 (antibody, human IgG1, kappa)
heavy: not shown
light: B5 light with Y54C
notes: humanized, human IgG1 kappa
B9: 7G6-HCzu18-LCzu12 (antibody, human IgG1, kappa, V domains shown)
VH: B1 VH with V72R
VL: B1 VL
notes: humanized, human IgG1 kappa
B10: 7G6-HCzu14-LCzu12 (antibody, human IgG1, kappa, V domains shown)
VH: B1 VH with S49G, N61A, E62D, S66G, N77S, L79A
VL: B1 VL
notes: humanized, human IgG1 kappa
B11: 7G6-HCzu12-LCzu14 (antibody, human IgG1, kappa)
heavy: not shown
light: B5 light with V2I, Y54C
notes: humanized, human IgG1 kappa
B12: 7G6-HCzu12-LCzu11 (antibody, human IgG1, kappa)
heavy: not shown
light: B5 light with V2I
notes: humanized, human IgG1 kappa
B13: 7G6-HCzu19-LCzu12 (antibody, human IgG1, kappa, V domains shown)
VH: B1 VH with N61A, E62D, S66G, V72R
VL: B1 VL
notes: humanized, human IgG1 kappa
B14: 7G6-HCzu16-LCzu12 (antibody, human IgG1, kappa, V domains shown)
VH: B1 VH with L79A
VL: B1 VL
notes: humanized, human IgG1 kappa
B15: 7G6-HCzu11-LCzu11 (antibody, human IgG1, kappa, V domains shown)
VH: B1 VH with V72R, R98K
VL: B1 VL with V2I, C54Y
notes: humanized, human IgG1 kappa
B16: 7G6-HCzu7-LCzu6 (antibody, human IgG1, kappa, V domains shown)
VH: QVQLVQSGAEVKKPGASVKVSCKASGYTFTTYWITWVRQAPGQGLEWMGDIYPGSSISNYAQKFQGRVTMTVDTSTSTVYMELSSLRSEDTAVYYCAREDGYDAWFAYWGQGTLVTVSS
VL: DVVMTQSPLSLPVTLGQPASISCRSSQSILHSNGNTYLEWYQQRPGQSPRLLISKVSNRFSGVPDRFSGSGSGTDFTLKISRVEAEDVGVYYCFQGSHVPFTFGQGTKLEIKR
notes: humanized, human IgG1 kappa
B17: 7G6-HCzu10-LCzu6 (antibody, human IgG1, kappa, V domains shown)
VH: B16 VH with S58C, V72R
VL: B16 VL
notes: humanized, human IgG1 kappa
B18: 7G6-HCzu9-LCzu6 (antibody, human IgG1, kappa, V domains shown)
VH: B16 VH with S58C
VL: B16 VL
notes: humanized, human IgG1 kappa
B19: recombinant ms7G6, mouse IgG2b (antibody, V domains shown)
VH: QVQLLQPGAELVKPGASVIMSCKASGYTFTTYWITWVKQRPGQGLEWIGDIYPGSSICNYNEKFKSKATLTVDTSSSTAYMQLNSLTSEDSAVYYCAREDGYDAWFAYWGQGTLVTVSA
VL: DVLMTQTPLSLPVSLGDQASISCRSSQSILHSNGNTYLEWYLQKPGQSPKLLICKVSNRFSGVPDRFSGSGSGTDFTLKISRVEAEDLGVYYCFQGSHVPFTFGSGTKLEIK
notes: Recombinant material, mouse IgG2b
B20: recombinant ms7G6, mouse IgG2a (antibody, V domains shown)
VH: B19 VH
VL: B19 VL
notes: Recombinant material, mouse IgG2a

Assays:
[1] = target: T1, Human Tau 2N4R, wild type, recombinant full length (human, UniProt P10636 2-758); test: SPR BIAcore, mAb captured by anti-human IgG, Tau flowed, 1:1 Langmuir
T1 construct: Full length 2N4R isoform; monomer in SPR and ELISA; heparin-induced aggregates or seeds in the functional assays; also called Tau441; Tau-441
T1 sequence (P10636 other isoform, or with tags, fused parts or gaps limits assumed): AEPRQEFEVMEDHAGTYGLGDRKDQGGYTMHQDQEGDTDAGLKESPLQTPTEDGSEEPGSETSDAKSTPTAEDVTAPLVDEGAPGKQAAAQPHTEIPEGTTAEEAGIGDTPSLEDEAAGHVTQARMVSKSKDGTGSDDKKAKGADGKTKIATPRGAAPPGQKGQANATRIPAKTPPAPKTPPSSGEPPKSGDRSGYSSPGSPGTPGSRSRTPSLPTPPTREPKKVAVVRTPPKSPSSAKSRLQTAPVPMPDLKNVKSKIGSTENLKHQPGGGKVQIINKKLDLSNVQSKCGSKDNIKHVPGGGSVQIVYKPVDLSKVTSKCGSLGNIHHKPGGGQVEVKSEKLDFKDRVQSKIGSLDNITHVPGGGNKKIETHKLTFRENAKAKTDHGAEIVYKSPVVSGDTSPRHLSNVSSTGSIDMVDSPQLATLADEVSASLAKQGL
Procedure: (§1) All experiments were performed using a BIAcore™ T-100 instrument (GE Healthcare). 10 μL anti-human IgG (monoclonal mouse anti-human Fc) from human antibody capture kit (GE Healthcare) was diluted to 25 μL/mL in 200 μL final immobilization buffer (10 mM sodium acetate, pH 5.0). The flow rate was set to 5 μL/min, flowpath 1. Fifty μL N-hydroxysuccinamide (NETS) and 50 μL 1-ethyl-3-(3-dimethylaminopropyl) carbidiimide (EDC) were mixed and injected for 420 sec to activate the CM5 chip surface. The diluted antibody was injected for 360 seconds followed by 1 M ethanolamine for 420 seconds. The flowpath was then switched to flowpath 2. A new EDC/NHS mixture was prepared and the procedure was repeated for flow cell 2. The surface was conditioned by 2 injections of 30 sec using flowpath 1, 2 at 30 μL/min of 3M MgCl₂. For the anti-mouse surface, 10 μL anti-mouse IgG (polyclonal rabbit anti-mouse IgG) from mouse antibody capture kit (GE Healthcare) was diluted to 30 μL/mL in 324 μL final immobilization buffer (10 mM sodium acetate, pH 5.0). The flow rate was set to 5 μL/min, flowpath 3. Fifty μL NHS and 50 μL EDC were mixed and injected for 420 sec to activate the chip surface. The diluted antibody was injected for 420 sec. 1 M ethanolamine was injected for 420 sec. Flow path was switched to flowpath 4. A new EDC/NHS mixture was prepared and the procedure was repeated for flow cell 4. The surface was conditioned by 2 injections of 30 sec using flowpath 3, 4 at 30 μL/min of 10 mM glycine, pH 1.7.
(§2) Binding of humanized and mouse antibodies were analyzed by BIAcore™ to determine their relative association rates (ka), dissociation rates (kd), and equilibrium binding constants (KD). Anti-mouse or anti-human antibodies were immobilized on a CM5 chip and sample mAbs were captured on the chip. 2N4R Tau was flowed over the chip and binding observed. The binding constants kₐ, kd, and KD were determined using a 1:1 Langmuir fitting model. Both 7G6-HCzu12-based mAbs had similar kₐ and kd values (Table 8). However, the kₐ of 7G6-HCzu11 was decreased, though the kd was unaffected. Therefore, human residues in the Vh3 framework impact binding to Tau.

[2] = target: T1, Human Tau 2N4R, wild type, recombinant …; test: as above; remark: listed apart in the source
Procedure: as §1
Binding of humanized and mouse antibodies were analyzed by surface plasmon resonance (BIAcore™) to determine their relative association rates (kₐ), dissociation rates (kd), and equilibrium binding constants (KD). Anti-mouse or anti-human antibodies were immobilized on a CM5 chip and sample mAbs were captured on the chip. 2N4R Tau was flowed over the chip and binding observed. The binding constants kₐ, kd, and KD were determined using a 1:1 Langmuir fitting model.

[3] = target: T1, Human Tau 2N4R, wild type, recombinant …; test: SPR BIAcore, mAb captured by anti-mouse IgG, Tau flowed, 1:1 Langmuir
Procedure: as §1, §2

[4] = target: T1, Human Tau 2N4R, wild type, recombinant …; test: as above; remark: listed apart in the source
Procedure: as §1, §2

Binder	Kd [1]	koff [1]	kon [1]	also measured
B1	0.073 nM	0.000124 s⁻¹	1.7e+06 M⁻¹ s⁻¹	–
B2	0.138 nM	0.000278 s⁻¹	2.02e+06 M⁻¹ s⁻¹	–
B3	0.119 nM	0.000136 s⁻¹	1.14e+06 M⁻¹ s⁻¹	–
B4	0.099 nM	0.000148 s⁻¹	1.49e+06 M⁻¹ s⁻¹	–
B5	0.0888 nM	0.000124 s⁻¹	1.4e+06 M⁻¹ s⁻¹	–
B6	0.168 nM	0.000239 s⁻¹	1.42e+06 M⁻¹ s⁻¹	–
B7	0.0959 nM	0.000141 s⁻¹	1.47e+06 M⁻¹ s⁻¹	–
B8	0.129 nM and 0.0875 nM	0.000193 s⁻¹ and 0.000151 s⁻¹	1.49e+06 M⁻¹ s⁻¹ and 1.72e+06 M⁻¹ s⁻¹	–
B9	0.0815 nM	0.000128 s⁻¹	1.57e+06 M⁻¹ s⁻¹	–
B10	0.133 nM	0.000194 s⁻¹	1.46e+06 M⁻¹ s⁻¹	–
B11	0.0689 nM	0.000119 s⁻¹	1.73e+06 M⁻¹ s⁻¹	–
B12	0.132 nM	0.000181 s⁻¹	1.38e+06 M⁻¹ s⁻¹	–
B13	0.121 nM	0.000152 s⁻¹	1.25e+06 M⁻¹ s⁻¹	–
B14	0.114 nM	0.000174 s⁻¹	1.53e+06 M⁻¹ s⁻¹	–
B15	0.205 nM	0.000175 s⁻¹	853000 M⁻¹ s⁻¹	–
B16	–	–	–	Kd [2]: 0.109 nM; koff [2]: 0.000226 s⁻¹; kon [2]: 2.08e+06 M⁻¹ s⁻¹
B17	–	–	–	Kd [2]: 0.108 nM; koff [2]: 0.000213 s⁻¹; kon [2]: 1.98e+06 M⁻¹ s⁻¹
B18	–	–	–	Kd [2]: 0.0938 nM; koff [2]: 0.000193 s⁻¹; kon [2]: 2.06e+06 M⁻¹ s⁻¹
B19	–	–	–	Kd [3]: 4.17 nM; koff [3]: 0.00156 s⁻¹; kon [3]: 373000 M⁻¹ s⁻¹; Kd [4]: 4.17 nM; koff [4]: 0.00156 s⁻¹; kon [4]: 373000 M⁻¹ s⁻¹
B20	–	–	–	Kd [3]: 2.73 nM; koff [3]: 0.0015 s⁻¹; kon [3]: 549000 M⁻¹ s⁻¹; Kd [4]: 2.73 nM; koff [4]: 0.0015 s⁻¹; kon [4]: 549000 M⁻¹ s⁻¹
